Three molecules from patent US20230038638A1, “COMPLEMENT FACTOR I-RELATED COMPOSITIONS AND METHODS” (published 2023) can be followed below.

Numbering of substitutions follows the chain as printed. Read-outs that look alike come from different tables or passages of the source.

Experiment [1] concerns the target T1, C3b (human, UniProt P01024).
Experiment [2] concerns the target T2, C4b (human, UniProt P0C0L4).
T2 sequence: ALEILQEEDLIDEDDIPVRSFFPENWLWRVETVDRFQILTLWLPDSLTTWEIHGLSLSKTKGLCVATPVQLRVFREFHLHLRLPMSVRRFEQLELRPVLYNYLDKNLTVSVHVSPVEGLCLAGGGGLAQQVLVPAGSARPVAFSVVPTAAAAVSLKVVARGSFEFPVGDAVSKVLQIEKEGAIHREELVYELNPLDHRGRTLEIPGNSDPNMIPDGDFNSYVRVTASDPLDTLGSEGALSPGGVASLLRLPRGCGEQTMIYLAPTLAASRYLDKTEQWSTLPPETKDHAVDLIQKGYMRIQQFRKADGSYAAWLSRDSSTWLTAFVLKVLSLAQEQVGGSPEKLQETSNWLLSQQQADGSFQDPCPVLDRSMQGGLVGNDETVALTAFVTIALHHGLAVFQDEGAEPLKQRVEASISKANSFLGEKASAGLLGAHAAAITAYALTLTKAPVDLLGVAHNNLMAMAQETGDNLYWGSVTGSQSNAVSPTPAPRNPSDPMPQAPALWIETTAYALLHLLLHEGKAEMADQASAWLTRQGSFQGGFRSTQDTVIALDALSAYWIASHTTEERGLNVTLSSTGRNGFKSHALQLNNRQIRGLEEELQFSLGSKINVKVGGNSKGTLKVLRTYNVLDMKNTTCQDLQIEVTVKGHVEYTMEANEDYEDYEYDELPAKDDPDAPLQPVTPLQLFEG

Experiment [3] concerns the target T1, C3b. The source holds these as a separate data set.
The target of experiment [4] is T1, C3b. This is another data set of the same source.
In experiment [5] the target is T1, C3b. The source holds these as a separate data set.
Experiment [6] deals with T1, C3b. This is another data set of the same source.
The target of experiment [7] is soluble human C3b (human) (UniProt P01024).
Another experiment concerns the target T3, human C4b (human) (UniProt P0C0L5).
T3 sequence: T2 sequence with A151T, D317G, P364L, C365S, L368I, D369H, N420S, V451A, L454R, S530A

The target in experiment [8] is T1, C3b. Put plainly: cell-based or functional assay.
Experiment [9] deals with T2, C4b. Put plainly: cell-based or functional assay.
Experiment [10] concerns the target soluble human C3b (human) (UniProt P01024). The source holds these as a separate data set.

“CFI-HSA variant E457G + CR1(CCP1-3) (from UniProt P17927) (enzyme)” displayed an AP IC50, alternative pathway hemolysis with C3b [1] of 86 nM. In addition, the CP IC50, classical pathway hemolysis of sensitised sheep red cells with C4b [2] is 122 nM.

As to CFI-HSA variant N531G + P535A (enzyme), the C3dg formation in activated human serum (TRIFMA), EC50 WT/EC50Variant in the experiment with C3b [3] is 26.2. Moreover, in the experiment with C3b [4], the C3dg formation (TRIFMA), EC50 against wild type (FIG. 10) stood at 18 fold. Also, the C3b cleavage, % Activity in the experiment with C3b [5] was 120%. The molecule also gave a C3b cleavage rate, kmut/kwt with C3b [6] of 3.

B1: Plasma derived, wild type human CFI (enzyme)
chain: KVTYTSQEDLVEKKCLAKKYTHLSCDKVFCQPWQRCIEGTCVCKLPYQCPKNGTAVCATNRRSFPTYCQQKSLECLHPGTKFLNNGTCTAEGKFSVSLKHGNTDSEGIVEVKLVDQDKTMFICKSSWSMREANVACLDLGFQQGADTQRRFKLSDLSINSTECLHVHCRGLETSLAECTFTKRRTMGYQDFADVVCYTQKADSPMDDFFQCVNGKYISQMKACDGINDCGDQSDELCCKACQGKGFHCKSGVCIPSQYQCNGEVDCITGEDEVGCAGFASVTQEETEILTADMDAERRRIKSLLPKLSCGVKNRMHIRRKRIVGGKRAQLGDLPWQVAIKDASGITCGGIYIGGCWILTAAHCLRASKTHRYQIWTTVVDWIHPDLKRIVIEYVDRIIFHENYNAGTYQNDIALIEMKKDGNKKDCELPRSIPACVPWSPYLFQPNDTCIVSGWGREKDNERVFSLQWGEVKLISNCSKFYGNRFYEKEMECAGTYDGSIDACKGDSGGPLVCMDANNVTYVWGVVSWGENCGKPEFPGVYTKVANYFDWISYHVGRPFISQYNV
In [7], B1 returned a C3b cleavage EC50 of 25.3 nM. In the experiment with human C4b (human), this molecule returned a C4b cleavage EC50 of 385 nM. Besides, the “AP IC50, alternative pathway hemolysis” value in the experiment with C3b [8] is 6.05 nM. In the experiment with C4b [9], the “CP IC50, classical pathway hemolysis of sensitised sheep red cells” value was determined as 135 nM. In addition, the C3b-enriched AP hemolytic assay IC50 in experiment [10] is 12.9 nM.
